B1: B. subtilis araT: Bacillus subtilis aromatic aminotransferase (araT, SEQ ID NOS: 9 and 10) (protein, listed as Bacillus subtilis)
chain: MEHLLNPKAREIEISGIRKFSNLVAQHEDVISLTIGQPDFFTPHHVKAAAKKAIDENVTSYTPNAGYLELRQAVQLYMKKKADFNYDAESEIIITTGASQAIDAAFRTILSPGDEVIMPGPIYPGYEPIINLCGAKPVIVDTTSHGFKLTARLIEDALTPNTKCVVLPYPSNPTGVTLSEEELKSIAALLKGRNVFVLSDEIYSELTYDRPHYSIATYLRDQTIVINGLSKSHSMTGWRIGFLFAPKDIAKHILKVHQYNVSCASSISQKAALEAVTNGFDDALIMREQYKKRLDYVYDRLVSMGLDVVKPSGAFYIFPSIKSFGMTSFDFSMALLEDAGVALVPGSSFSTYGEGYVRLSFACSMDTLREGLDRLELFVLKKREAMQTINNGV
B2: E. coli aspC: Escherichia coli aspartate aminotransferase (aspC) (protein, UniProt P00509 1-396, looked up)
Aspartate aminotransferase: MFENITAAPADPILGLADLFRADERPGKINLGIGVYKDETGKTPVLTSVKKAEQYLLENETTKNYLGIDGIPEFGRCTQELLFGKGSALINDKRARTAQTPGGTGALRVAADFLAKNTSVKRVWVSNPSWPNHKSVFNSAGLEVREYAYYDAENHTLDFDALINSLNEAQAGDVVLFHGCCHNPTGIDPTLEQWQTLAQLSVEKGWLPLFDFAYQGFARGLEEDAEGLRAFAAMHKELIVASSYSKNFGLYNERVGACTLVAADSETVDRAFSQMKAAIRANYSNPPAHGASVVATILSNDALRAIWEQELTDMRQRIQRMRQLFVNTLQEKGANRDFSFIIKQNGMFSFSGLTKEQVLRLREEFGVYAVASGRVNVAGMTPDNMAPLCEAIVAVL
B3: R. sphaeroides 2.4.1 tatA: Rhodobacter sphaeroides strain 2.4.1 tyrosine aminotransferase (SEQ ID NOS: 3 and 4) (protein)
chain: MRSTTAPGPSGACMTISRSRKDDEGMLTALKPQPADKILQLIQMFREDARADKIDLGVGVYKDPTGLTPVMRAVKAAEKRLWEVETTKTYTGLADEPAYNAAMAKLILAGAVPADRVASVATPGGTGAVRQALELIRMASPEATVWISNPTWPNHLSIVKYLGIPMREYRYFDAETGAVDAEGMMEDLAQVKAGDVVLLHGCCHNPTGANPNPVQWLAICESLARTGAVPLIDLAYQGFGDGLEMDAAATRLLATRLPEVLIAASCSKNFGIYRERTGILIAIGEAAGRGTVQANLNFLNRQNYSFPPDHGARLVTMILEDETLSADWKAELEEVRLNMLTLRRQLADALQAETGSNRFGFVAEHRGMFSRLGITPAEVERLRTEHGVYMVGDSRLNIAGLNRTTVPVLARAVAKVLRG
modifications: Rhodobacter sphaeroides
B4: R. sphaeroides 35053 tatA: R. sphaeroides 35053 tyrosine aminotransferase (SEQ ID NOS: 5 and 6) (protein)
chain: MRSTTAPGPSGACMTISRSRKDDEGMLTALKPQPADKILQLIQMFREDARADKIDLGVGVYKDPTGLTPVMRAVKAAEKRLWEVETTKTYTGLAGEPAYNAAMAKLILAGAVPADRVASVATPGGTGAVRQALELIRMASPEATVWISNPTWPNHLSIVKYLGIPMREYRYFDAETGAVDAEGLMEDLAQVKAGDVVLLHGCCHNPTGANPNPVQWLAVCESLARTGAVPLIDLAYQGFGDGLEMDAAATRLLATRLPEVLIAASCSKNFGIYRERTGILIAIGEAAGRGTVQANLNFLNRQNYSFPPDHGARLVTMILEDETLSADWKAELEEVRLNMLTLRRQLADALQAETGSNRFGFVAEHRGMFSRLGITPAEVERLRTEHGVYMVGDSRLNIAGLNRTTVPVLARAVAKVLRG
modifications: Rhodobacter sphaeroides

Experiment: tryptophan aminotransferase activity, production of indole-pyruvic acid
Assay type: biochemical
Details: for Specific Activity: 5 mM L-tryptophan, 30 minutes at 30° C.; for tryptophan aminotransferase activity (in words): recombinant clones expressed in E. coli
Protocol: Cell extracts were analyzed by SDS-PAGE, and assayed for tryptophan aminotransferase activity by following production of indole-pyruvic acid using the following protocol. One mL reactions were carried out in 50 mM sodium tetraborate (pH 8.5), 0.5 mM EDTA, 0.5 mM sodium arsenate, 50 μM pyridoxal phosphate, 5 mM α-ketoglutarate, and 5 mM L-tryptophan. The reactions were initiated by the addition of cell free extracts or purified enzyme and were incubated 30 minutes at 30° C. 20% TCA (200 μL) was added to stop the reaction, and the precipitated protein was removed by centrifugation. The absorbance at 327 nm was measured and compared to a standard curve of freshly prepared indole-3-pyruvate in the assay buffer. Control reactions without the substrate tryptophan or using cell-free extracts from clones transformed with pET30a alone were also performed.
Due to background from the native E. coli aminotransferases in cell extracts, the recombinant fusion proteins each containing an aminotransferase protein fused to the pET30 amino terminal HIS6-Tag/S-Tag (6×HIS tag disclosed as SEQ ID NO: 90) were purified using immobilized metal affinity chromatography with His-Bind cartridges following manufacturer's protocols (Novagen, Madison, Wis.). The HIS6-Tag sequence (SEQ ID NO: 90) of the fusion proteins binds to the divalent Ni^2+ cations immobilized on IDA-based His-Bind resin. The eluent fractions were desalted on PD-10 (Amersham Biosciences, Piscataway, N.J.) columns and eluted in 50 mM Tris, pH 7.0. Purified proteins were analyzed by SDS-PAGE and assayed for aminotransferase activity.
Table 1 lists the specific activities measured in micrograms of indole-3-pyruvate (I3P) formed per milligram protein per minute. […] In these cases a ‘>’ precedes the specific activity number.

Row | Molecule | Specific Activity (cell extracts (CE)) [μg I3P/mg protein/min] | Specific Activity (purified (P)) | tryptophan aminotransferase activity (in words)
1 | B1 | 0 | 1.5–4.5 μg I3P/mg protein/min | little enzymatic activity
2 | B2 |  | 800 μg I3P/mg protein/min | significant levels of tryptophan aminotransferase activity
3 | B3 | >41.2 | 1086 μg I3P/mg protein/min | 
4 | B4 | >62.3 | >486 μg I3P/mg protein/min | 

From patent publication US8206955B2, “Production of monatin and monatin precursors” (Cargill, Incorporated, priority 2003, dated 2012)
